The target of assay [1] is T1, recombinant human CD3 epsilon/gamma heterodimer (human, UniProt P07766 23-126; P09693 23-116).
T1 construct: Recombinant protein in solution (200-50 nM) in the Octet assay; also called hCD3 E/G
Description: Octet BLI, mAb on FAB2G sensor, hCD3 E/G 200-50 nM; R^2 1.00. On the technique in general: Biolayer interferometry detects binding as a change in optical thickness at a sensor tip.
Description: (§1) Samples were evaluated by flow cytometry analysis against Jurkat and human Pan-T cells (FIG. 1B) as well as by Octet against recombinant human CD3 proteins to evaluate apparent affinities and binding off-rates (Table 6, infra).

Assay [2] has as its target T2, recombinant human CD3 epsilon/delta heterodimer (human, UniProt P07766 23-126; P04234 22-105).
T2 construct: Recombinant protein in solution (200-50 nM) in the Octet assay; also called hCD3 E/D; human CD3E/D
Description: Octet BLI, mAb on FAB2G sensor, hCD3 E/D 200-50 nM; R^2 0.99.

In assay [3] the target is T1, recombinant human CD3 epsilon/gamma …. Briefly: Octet BLI, mAb on FAB2G sensor, hCD3 E/G 200-50 nM; R^2 0.98.
Description: as §1
Assay [4] concerns the target T2, recombinant human CD3 epsilon/delta …. Briefly: Octet BLI, mAb on FAB2G sensor, hCD3 E/D 200-50 nM; R^2 0.98.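 Note: antibodies purified from hybridoma supernatants, measured by Octet binding to recombinant human CD3 protein.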
Description: as §1
Assay [5] concerns the target T1, recombinant human CD3 epsilon/gamma …. Description: Octet BLI, mAb on FAB2G sensor, hCD3 E/G 200-50 nM; R^2 0.99.
Assay [6] has as its target T2, recombinant human CD3 epsilon/delta …. Briefly: Octet BLI, mAb on FAB2G sensor, hCD3 E/D 200-50 nM; R^2 1.00.
Assay [7] has as its target T3, CD33 on KILR-HL60 cells (UniProt P20138 18-364, limits assumed).
T3 construct: whole, on cells; Target of the gemtuzumab arm; also called CD33 expressing cells
Description: flow cytometry on KILR-HL60 (CD33 expressing) cells, antibody at 1 ug/ml. In general terms: Flow cytometry measures light scatter and fluorescence of single cells or particles in a stream.

For assay [8], the target named is T3, CD33 on KILR-HL60 cells. Briefly: flow cytometry on KILR-HL60 (CD33 expressing) cells, antibody at 10 ug/ml.

These results are taken from patent US20260167721A1 (ABLEXIS, published 2026).

T1 sequence (P07766 23-126, chain 1 of 2): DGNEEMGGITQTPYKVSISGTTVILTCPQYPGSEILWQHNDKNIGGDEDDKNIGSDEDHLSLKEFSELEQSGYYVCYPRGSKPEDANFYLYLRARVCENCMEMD
T1 sequence (P09693 23-116, chain 2 of 2): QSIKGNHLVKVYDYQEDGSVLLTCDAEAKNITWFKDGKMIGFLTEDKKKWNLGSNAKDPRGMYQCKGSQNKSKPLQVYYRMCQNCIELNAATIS
T2 sequence (P07766 23-126, stated change not applied, chain 1 of 2): as the sequence (P07766 23-126, chain 1 of 2) above
T2 sequence (P04234 22-105, stated change not applied, chain 2 of 2): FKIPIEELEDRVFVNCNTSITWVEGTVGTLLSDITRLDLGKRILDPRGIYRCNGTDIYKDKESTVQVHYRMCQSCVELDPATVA
T3 sequence (P20138 18-364 limits assumed): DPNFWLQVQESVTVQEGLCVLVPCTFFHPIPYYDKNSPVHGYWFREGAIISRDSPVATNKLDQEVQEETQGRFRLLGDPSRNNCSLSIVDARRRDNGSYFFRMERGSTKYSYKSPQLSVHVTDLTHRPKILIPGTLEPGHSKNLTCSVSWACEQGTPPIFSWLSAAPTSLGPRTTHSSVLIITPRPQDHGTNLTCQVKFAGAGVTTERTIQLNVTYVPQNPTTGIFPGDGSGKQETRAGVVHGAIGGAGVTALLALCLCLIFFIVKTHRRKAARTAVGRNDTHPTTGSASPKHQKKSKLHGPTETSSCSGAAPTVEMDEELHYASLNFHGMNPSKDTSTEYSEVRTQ

B1: ABL-CD3-25 (antibody, V domains shown)
VH: EVHLVESGGGLVKPGGSLRLSCAASGFTFSSYSMNWVRQAPGKGLEWVSSISSSSTYIYYADSVKGRFTISRDNAKNSLYLQMNSLRAEDTAVYYCAREPRTLGMDYWGQGILVTVSS
VL: NFMLTQPHSVSESPGKTVTISCTRSSGSIASNYVQWYQQRPGSSPTTVIYEDNHRPSGVPDRFSGSIDSSSNSASLTISGLKTEDEADYFCQSFDSSNRVFGGGTKLTVL
notes: Chimeric hybridoma mAb: human V, CH1, upper hinge; mouse middle hinge, CH2, CH3
In the case of B1, in assay [1], the Kd turned out to be 11.7 nM, the Response came out at 1.27, the koff is 0.00113 s⁻¹ and the kon stood at 96600 M⁻¹ s⁻¹. Further, in assay [2], the Kd amounted to 8.56 nM, the Response amounted to 1.32, the koff was 0.000933 s⁻¹ and the kon is 109000 M⁻¹ s⁻¹.

B2: ABL-CD3-62 (antibody, V domains shown)
VH: EVQLVESGGGLVKPGGSLRLSCAASGFTFSSYSMNWVRQAPGKGLEWVSSISRSSGYIFYADSVKGRFTISRDNAKNSLYLQMNSLRAEDTAVYYCVRERVGAGFDYWGQGTLVTVSS
VL: NFMLTQPHSVSESPGKTVAISCTRSSGSIASNYVQWYQQRPGSSPTAVIYEDNQRPSGVPDRFSGSIDSSSNSAFLTISGLKTEDEADYYCQSYDSSNRVFGGGTKLTVL
notes: as for B1
As for B2, in assay [3], the Kd was determined as 23.8 nM, the Response came out at 0.69, the koff amounted to 0.00391 s⁻¹ and the kon came out at 164000 M⁻¹ s⁻¹. For the same molecule, in assay [4], the Kd was determined as 34 nM, the Response turned out to be 0.56, the dissociation rate constant (koff) turned out to be 0.00765 s⁻¹ and the kon was determined as 225000 M⁻¹ s⁻¹.

B3: ABL-CD3-51 (antibody, V domains shown)
VH: EVQLVESGGGLVKPGGSLRLSCAASGFTFSSYSMNWVRQAPGKGLEWVSSISRSSSYIYYADSVKGRFTISRDNAKNSLYLQMNSLRAEDTAVYYCARERWELLYFDYWGQGTLVTVSS
VL: NFMLTQPHSVSESPGKTVTISCTRSSGSIASNYVQWYQQRPGSSPTTVIYEDNQRPSGVPDRFSGSIDSSSNSASLTISGLKTEDEADYYCQSYDSSNRVFGGGTKLTVL
notes: as for B1
Take B3: in assay [3], the Kd is 233 nM, the Response was determined as 0.06, the off-rate (koff) came out at 0.163 s⁻¹ and the kon is 699000 M⁻¹ s⁻¹. Besides, in assay [4], the Kd was 77.1 nM, the Response came to 0.21, the off-rate constant (koff) was found to be 0.0188 s⁻¹ and the kon was 244000 M⁻¹ s⁻¹.

B4: ABL-CD3-34 (antibody, V domains shown)
VH: EVHLVESGGGLVKPGGSLRLSCAASGFTFSRYSMNWVRQAPGKGLEWVSSISRSSSYIYYADSVKGRFTISRDNAKNSLYLQMNSLRAEDTAVYYCAREPRTLGMDYWGQGILVTVSS
VL: NFMLTQPHSVSESPGKTVTISCTRSSGSIASNYVQWYQQRPGSSPTTVIYEDNQRPSGVPDRFSGSIDSSSNSASLTISGLKTEDEADYYCQSYDSSNRVFGGGTKLTVL
notes: as for B1
For B4, in assay [3], the dissociation constant Kd was 9.82 nM, the Response was 0.89, the koff was 0.00196 s⁻¹ and the kon was determined as 199000 M⁻¹ s⁻¹. Further, in assay [4], the Kd was determined as 9.01 nM, the Response was found to be 0.93, the koff was determined as 0.00211 s⁻¹ and the on-rate (kon) amounted to 234000 M⁻¹ s⁻¹.

B5: ABL-CD3-59 (antibody, V domains shown)
VH: EVQLVESGGGLVKPGGSLRLSCTASGFTLSSYSMNWVRQAPGKGLEWVSSLSRSSNYIYYAVSVKGRFTISRDNAKNSLYLQMNSLRAEDTAVYYCARERWELLYFDYWGQGTLVTVSS
VL: NFMLTQPHSVSESPGKTVTISCTRSSGSIASNYVQWYQQRPGSSPTTVIYEDNQRPSGVPDRFSGSIDSSSNSASLTISGLQTEDEADYYCQSYDNSIRVFGGGTKLTVL
notes: as for B1
Turning to B5, in assay [5], the Kd turned out to be 43.3 nM, the Response came to 0.58, the dissociation rate constant (koff) amounted to 0.00487 s⁻¹ and the association rate constant (kon) was 113000 M⁻¹ s⁻¹. Moreover, in assay [6], the Kd worked out at 12.7 nM, the Response stood at 0.81, the koff came out at 0.00105 s⁻¹ and the kon is 83100 M⁻¹ s⁻¹.

B6: ABL-CD3-15 (antibody, V domains shown)
VH: EVQLVESGGGLVKPGGSLRLSCAASGFNCSSYSMNWVRQAPGKGLEWVSSISRSSNYIYYADSVKGRFSISRDDAKNSLYLQMNSLRAEDTAVYYCARERWIQLYSDYWGQGILVTVSS
VL: NFMLTQPHSVSESPGKTVTISCTRSSGSIASNYVQWYQQRPGSSPTTVIYEDNQRPSGVPDRFSGSIDSSSNSASLTISGLKTEDEADYYCQSYDSSNRVFGGGTKLTVL
notes: as for B1
Regarding B6, in assay [1], the Kd came to 6.54 nM, the Response was found to be 0.83, the koff is 0.00113 s⁻¹ and the on-rate constant (kon) stood at 173000 M⁻¹ s⁻¹. In assay [2], the Kd worked out at 1.62 nM, the Response was 0.93, the off-rate (koff) was determined as 0.000276 s⁻¹ and the on-rate constant (kon) is 171000 M⁻¹ s⁻¹.

B7: ABL-CD3-41 (antibody, V domains shown)
VH: EVQLVESGGGLVKPGGSLRLSCAASGFTFSSYSMNWVRQAPGKGLEWVSSVNSRGSYIYYADSVKGRFTISRDNAKDSLYLQMNSLRADDTAVYYCARDRRELLLDYWGQGTLVTVSS
VL: SYELTQPPSVSVSPGQTARITCSGDALPKKYAYWYQQKSGQAPVLVIYEDSKRPSGIPERFSGSSSGTMATLTISGAQVEDEADYYCYSTDSSGNHCWVFGGGTKLTVL
notes: as for B1
Turning to B7, in assay [5], the dissociation constant (Kd) is 295 nM, the Response was 0.1, the off-rate (koff) was 0.25 s⁻¹ and the kon was found to be 846000 M⁻¹ s⁻¹. Besides, in assay [6], the Kd turned out to be 85 nM, the Response is 0.34, the off-rate constant (koff) is 0.0395 s⁻¹ and the kon stood at 464000 M⁻¹ s⁻¹.

B8: ABL-CD3-52 (antibody, V domains shown)
VH: EVQLVESGGGLVKPGGSLRLSCAASGFTFSYYSMNWVRQAPGKGLEWVSSISRSTTYIYYADSVKGRFTISRDNAKNSLYLQMNSLRAEDTAVYYCARDGKGAIFLDYWGQGTLVTVSS
VL: SYELTQPPSVSVSPGQTARITCSGDALPKKYAYWYQQKSGQAPVLVIYEDSKRPSGIPERFSGSSSGTMATLTISGAQVEDEADYYCYSTDSSGNHRVFGGGTKLTVL
notes: as for B1
Turning to B8, in assay [3], the dissociation constant (Kd) was found to be 233 nM, the Response worked out at 0.14, the koff came to 0.115 s⁻¹ and the kon was found to be 495000 M⁻¹ s⁻¹. For the same molecule, in assay [4], the Kd worked out at 54 nM, the Response is 0.35, the koff was 0.0202 s⁻¹ and the kon stood at 373000 M⁻¹ s⁻¹.

B9: CD3 × CD33-BspAb65 (bispecific antibody)
scFv-Fc: NFMLTQPHSVSESPGKTVTIACTRSSGSIASNYVQWYQQRPGSSPTTVIYEDNQRPSGVPDRFSGSIDSSSNSASLTISGLKTEDEADYYCQSYDSSNQVFGCGTKLTVLGGGGSGGGGSGGGGSGGGGSQVTLKESGPGILQPSQTLSLTCSFSGFSLSTFGMGVGWIRQPSGKCLEWLAHIWWDDDKYYNPALKSRLTISKDTSKNQVFLKIANVDTADTATYYCARLGYYPYWFFDVWGTGTTVTVSSGGGGSDKTHTCPPCPAPEFEGGPSVFLFPPKPKDTLMISRTPEVTCVVVDVSHEDPEVKFNWYVDGVEVHNAKTKPREEQYNSTYRVVSVLTVLHQDWLNGKEYKCKVSNKALPASIEKTISKAKGQPREPQVYTLPPCREEMTKNQVSLWCLVKGFYPSDIAVEWESNGQPENNYKTTPPVLDSDGSFFLYSKLTVDKSRWQQGNVFSCSVMHEALHNHYTQKSLSLSPGK
heavy: EVQLVQSGAEVKKPGSSVKVSCKASGYTITDSNIHWVRQAPGQSLEWIGYIYPYNGGTDYNQKFKNRATLTVDNPTNTAYMELSSLRSEDTAFYYCVNGNPWLAYWGQGTLVTVSSASTKGPSVFPLAPSSKSTSGGTAALGCLVKDYFPEPVTVSWNSGALTSGVHTFPAVLQSSGLYSLSSVVTVPSSSLGTQTYICNVNHKPSNTKVDKRVEPKSCDKTHTCPPCPAPEFEGGPSVFLFPPKPKDTLMISRTPEVTCVVVDVSHEDPEVKFNWYVDGVEVHNAKTKPREEQYNSTYRVVSVLTVLHQDWLNGKEYKCKVSNKALPASIEKTISKAKGQPREPQVCTLPPSREEMTKNQVSLSCAVKGFYPSDIAVEWESNGQPENNYKTTPPVLDSDGSFFLVSKLTVDKSRWQQGNVFSCSVMHEALHNRFTQKSLSLSPGK
light: DIQLTQSPSTLSASVGDRVTITCRASESLDNYGIRFLTWFQQKPGKAPKLLMYAASNQGSGVPSRFSGSGSGTEFTLTISSLQPDDFATYYCQQTKEVPWSFGQGTKVEVKRTVAAPSVFIFPPSDEQLKSGTASVVCLLNNFYPREAKVQWKVDNALQSGNSQESVTEQDSKDSTYSLSSTLTLSKADYEKHKVYACEVTHQGLSSPVTKSFNRGEC
For the molecule B9, the figures for the flow cytometry signal in assay [7] and in assay [8] were 533000 and 605000, respectively.

B10: ABL-CD3-57 (antibody, V domains shown)
VH: EVQLVESGGGLVKPGGSLRLSCAASGFTFSSYTMNWVRQAPGKGLEWVSSISTSSRYIYYTDSVKGRFTISRDDAKNSLYLQMNSLRAEDTAVYYCTRNWGYDVFDIWGQGTMVIVSS
VL: QPVLTQPSSHSASSGASVRLTCMLSSGFSVGDFWIRWYQQKPGNPPRYLLYYHSDSNKGQGSGVPSRFSGSNDASANAGILRISGLQPEDEADYYCGTWHSNSKTQVFGGGTKLTVL
notes: as for B1
For the molecule B10, in assay [5], the dissociation constant Kd stood at 3.97 nM, the Response is 0.54, the koff came to 0.00026 s⁻¹ and the association rate constant (kon) was found to be 65400 M⁻¹ s⁻¹. In addition, in assay [4], the Kd worked out at 4.29 nM, the Response stood at 0.49, the koff was 0.000277 s⁻¹ and the association rate constant (kon) came out at 64700 M⁻¹ s⁻¹.

In general, Kd refers to the free concentration of one partner at which half of the binding sites on the other are occupied at equilibrium, for simple one-to-one binding. A word on the koff: it is the first-order rate constant of dissociation. By kon is commonly meant the rate constant with which the complex forms.
